Source: PMC5440694 (Nature Communications, 2017)

Tests used:
Experiment in all cases: BLI
Conditions in all cases: both partners purified
[1] = biological target: biotinylated HA0 ectodomain of A/Solomon Islands/3/2006 (H1N1) (Influenza A virus A/Solomon …, UniProt A7Y8I1, strain, biotin on the BirA biotinylation site)
[2] = biological target: biotinylated HA0 ectodomain of A/Beijing/262/1995 (H1N1) (Influenza A virus A/Beijing/262/1995 …, UniProt Q6WG01, strain, biotin on the BirA biotinylation site)
[3] = biological target: biotinylated HA0 ectodomain of A/Perth/16/2009 (H3N2) (Influenza A virus A/Perth/16/2009 (H3N2), UniProt C6KNH7, strain, biotin on the BirA biotinylation site)
[4] = biological target: biotinylated HA0 ectodomain of A/New Caledonia/20/1999 (H1N1) (Influenza A virus A/New …, UniProt Q6WG00, strain, biotin on the BirA biotinylation site)
[5] = biological target: biotinylated HA0 ectodomain of A/Panama/2007/1999 (H3N2) (Influenza A virus A/Panama/2007/1999 …, UniProt Q1K9M3, strain, biotin on the BirA biotinylation site)

B1: C05 Fab variant VVSSGW, expressed in insect cells (Fab, V domains shown)
VH: QVQLQESGGGLVQPGESLRLSCVGSGSSFGESTLSYYAVSWVRQAPGKGLEWLSIINAGGGDIDYADSVEGRFTISRDNSKETLYLQMTNLRVEDTGVYYCAKHMSMQQVVSSGWERADLVGDAFDVWGQGTMVTVSS
VL: DIQLTQSPSSLSASVGDRVTLTCQASQDIRKFLNWYQQKPGKGPKLLIYDASNLQRGVPSRFSGGGSGTDFTLIISSLQPEDVGTYYCQQYDGLPFTFGGGTKVVIK
B1 was tested, and the Kd [1] was 4.6 ± 0.6 nM, the Kd [2] was 259 ± 2.8 nM and the Kd [3] was 43.7 ± 0.5 nM. It also gave a Kd [4] of 2.9 ± 0.1 nM and a Kd [5] of 1290 ± 71 nM.

B2: C05 Fab variant VTGSGW, expressed in insect cells (Fab, V domains shown)
VH: QVQLQESGGGLVQPGESLRLSCVGSGSSFGESTLSYYAVSWVRQAPGKGLEWLSIINAGGGDIDYADSVEGRFTISRDNSKETLYLQMTNLRVEDTGVYYCAKHMSMQQVTGSGWERADLVGDAFDVWGQGTMVTVSS
VL: DIQLTQSPSSLSASVGDRVTLTCQASQDIRKFLNWYQQKPGKGPKLLIYDASNLQRGVPSRFSGGGSGTDFTLIISSLQPEDVGTYYCQQYDGLPFTFGGGTKVVIK
Work on B2 yielded a Kd [1] of 116 ± 1.9 nM, a Kd [2] of 182.3 ± 0.5 nM and a Kd [3] of 125.1 ± 1.2 nM. It also gave a Kd [4] of 1.1 ± 0.2 nM and a Kd [5] of 4340 ± 207 nM.
